Results published in US20200317768A1 (published 2020).
Changes are numbered by the printed parent chain. Names and notes keep the numbering of the source.

T1: human FcγRIIb constitutively expressed on MDCK cells (human, UniProt P31994 43-310)
T1 sequence (looked up): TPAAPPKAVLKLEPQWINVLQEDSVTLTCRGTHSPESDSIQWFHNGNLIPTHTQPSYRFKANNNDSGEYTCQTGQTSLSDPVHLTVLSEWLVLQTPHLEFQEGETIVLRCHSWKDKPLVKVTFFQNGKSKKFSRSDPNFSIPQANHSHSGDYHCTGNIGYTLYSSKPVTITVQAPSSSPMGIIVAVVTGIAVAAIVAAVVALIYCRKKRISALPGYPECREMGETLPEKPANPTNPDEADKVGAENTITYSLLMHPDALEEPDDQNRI

T2: soluble mouse FcγRII, His-tagged (mouse, UniProt P08101 30-210, limits assumed)
T2 construct: Captured on the chip by an anti-His antibody
T2 sequence (looked up): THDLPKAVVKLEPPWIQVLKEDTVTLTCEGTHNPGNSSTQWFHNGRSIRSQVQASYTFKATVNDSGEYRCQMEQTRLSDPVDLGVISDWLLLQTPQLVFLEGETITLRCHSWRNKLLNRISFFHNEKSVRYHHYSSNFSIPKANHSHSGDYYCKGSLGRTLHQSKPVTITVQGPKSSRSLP

T3: human FcγRIIaH extracellular domain, C-terminal His-tag (human, UniProt P12318 34-217)
T3 construct: also called human FcγRIIa (type H); FcgRIIaH
T3 sequence: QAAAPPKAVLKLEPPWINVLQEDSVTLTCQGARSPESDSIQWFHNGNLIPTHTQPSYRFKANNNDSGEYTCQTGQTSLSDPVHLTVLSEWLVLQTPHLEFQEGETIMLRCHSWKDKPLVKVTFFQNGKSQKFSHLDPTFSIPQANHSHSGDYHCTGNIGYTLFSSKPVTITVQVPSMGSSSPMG

T4: human FcγRIIaR extracellular domain, C-terminal His-tag (human, UniProt P12318 34-217)
T4 construct: also called human FcγRIIa (type R); FcgRIIaR
T4 chain: T3 sequence with H134R

B1: M103205H795-P1552m/M103202L889-SK1 (antibody, human IgG1, kappa)
heavy: QVTLKESGPVLVKPTETLTLTCTVSGIDLSHDDISWVRQAPGKGLEWVGIISYAGSTYYASWAKGRLTISKDTSKNQVVLTMTNMDPVDTATYYCARGVPAYSHGGDLWGQGTLVTVSSASTKGPSVFPLAPSSKSTSGGTAALGCLVKDYFPEPVTVSWNSGALTSGVHTFPAVLQSSGLYSLSSVVTVPSSSLGTQTYICNVNHKPSNTKVDKKVEPKSCDKTHTCPPCPAPELLGGPSVFLFPPKPKDTLMISRTPEVTCVVVDVSHEDPEVKFNWYVDGVEVHNAKTKPREEQYNSTYRVVSVLTVLHQDWLNGKEYKCKVSNKALPAPIEKTISKAKGQPREPQVYTLPPSREEMTKNQVSLTCLVKGFYPSDIAVEWESNRQPENNYKTTPPVLDSRGSFFLYSKLTVKKSRWQQGNVFSCSVMHEALHNHYTQKSLSLSP
light: DIVMTQSPATLSLSPGERATLSCTSSQSVYHANWLSWFQQKPGQPPKLLIYWASTLAYGVPSRFSGSGSGTDFTLTISSLQPEDAATYYCAGGYGGGRYAFGQGTKVEIKRTVAAPSVFIFPPSDEQLKSGTASVVCLLNNFYPREAKVQWKVDNALQSGNSQESVTEQDSKDSTYSLSSTLTLSKADYEKHKVYACEVTHQGLSSPVTKSFNRGEC
B2: M103205H795-P1553m/M103202L889-SK1 (antibody, human IgG1, kappa)
heavy: B1 heavy with R403D, G404R
light: B1 light
B3: M103205H795-P1555m/M103202L889-SK1 (antibody, human IgG1, kappa)
heavy: B1 heavy with R387G, E390R, R403D, G404R
light: B1 light
B4: M103205H795-SG141/M103202L889-SK1 (antibody, human IgG1, kappa)
heavy: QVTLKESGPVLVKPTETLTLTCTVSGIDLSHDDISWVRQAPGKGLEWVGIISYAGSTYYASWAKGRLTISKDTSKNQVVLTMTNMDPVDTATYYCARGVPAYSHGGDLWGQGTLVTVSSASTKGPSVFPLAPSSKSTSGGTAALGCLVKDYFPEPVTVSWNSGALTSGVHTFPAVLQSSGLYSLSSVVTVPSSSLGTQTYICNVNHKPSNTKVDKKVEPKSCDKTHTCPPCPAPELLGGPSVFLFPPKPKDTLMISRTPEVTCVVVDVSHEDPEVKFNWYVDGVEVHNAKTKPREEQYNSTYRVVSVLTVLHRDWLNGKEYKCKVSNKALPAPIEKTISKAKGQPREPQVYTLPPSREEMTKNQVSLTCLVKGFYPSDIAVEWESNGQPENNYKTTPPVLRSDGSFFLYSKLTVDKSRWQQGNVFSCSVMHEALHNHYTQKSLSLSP
light: B1 light
B5: GpH7-B3 variant A327N/GpL16-k0 (antibody, human IgG1, kappa)
heavy: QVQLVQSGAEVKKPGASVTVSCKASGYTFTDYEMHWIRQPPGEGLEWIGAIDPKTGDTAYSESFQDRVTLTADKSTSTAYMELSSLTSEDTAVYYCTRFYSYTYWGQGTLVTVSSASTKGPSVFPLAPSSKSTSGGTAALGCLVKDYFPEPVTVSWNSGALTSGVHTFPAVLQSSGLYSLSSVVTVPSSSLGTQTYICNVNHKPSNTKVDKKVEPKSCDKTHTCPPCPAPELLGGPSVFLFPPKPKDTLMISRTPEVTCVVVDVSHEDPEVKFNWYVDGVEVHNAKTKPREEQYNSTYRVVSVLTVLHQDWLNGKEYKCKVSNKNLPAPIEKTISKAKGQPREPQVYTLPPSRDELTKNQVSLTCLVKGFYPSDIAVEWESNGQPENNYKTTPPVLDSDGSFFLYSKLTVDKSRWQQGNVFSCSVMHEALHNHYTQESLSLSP
light: DIVMTQSPLSLPVTPGEPASISCQASESLVHSNRNTYLHWYLQKPGQSPQLLIYKVSNRFSGVPDRFSGSGSGTDFTLKISRVEAEDVGVYYCSQNTHVPPTFGQGTKVEIERTVAAPSVFIFPPSDEQLKSGTASVVCLLNNFYPREAKVQWKVDNALQSGNSQESVTEQDSKDSTYSLSSTLTLSKADYEKHKVYACEVTHQGLSSPVTKSFNRGEC
B6: GpH7-B3 variant A330K/GpL16-k0 (antibody, human IgG1, kappa)
heavy: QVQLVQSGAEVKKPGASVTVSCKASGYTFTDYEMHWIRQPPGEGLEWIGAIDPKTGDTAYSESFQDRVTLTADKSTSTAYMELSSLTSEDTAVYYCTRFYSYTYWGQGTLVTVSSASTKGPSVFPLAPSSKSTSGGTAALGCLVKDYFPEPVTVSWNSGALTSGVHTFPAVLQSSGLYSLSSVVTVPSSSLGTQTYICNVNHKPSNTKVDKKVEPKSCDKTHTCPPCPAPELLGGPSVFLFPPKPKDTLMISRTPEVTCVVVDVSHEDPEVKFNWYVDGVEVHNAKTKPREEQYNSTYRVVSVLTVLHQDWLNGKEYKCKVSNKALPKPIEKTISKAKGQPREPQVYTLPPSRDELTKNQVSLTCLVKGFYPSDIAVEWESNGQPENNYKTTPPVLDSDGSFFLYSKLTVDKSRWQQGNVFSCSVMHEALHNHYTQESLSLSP
light: B5 light
B7: GpH7-B3 variant A330R/GpL16-k0 (antibody, human IgG1, kappa)
heavy: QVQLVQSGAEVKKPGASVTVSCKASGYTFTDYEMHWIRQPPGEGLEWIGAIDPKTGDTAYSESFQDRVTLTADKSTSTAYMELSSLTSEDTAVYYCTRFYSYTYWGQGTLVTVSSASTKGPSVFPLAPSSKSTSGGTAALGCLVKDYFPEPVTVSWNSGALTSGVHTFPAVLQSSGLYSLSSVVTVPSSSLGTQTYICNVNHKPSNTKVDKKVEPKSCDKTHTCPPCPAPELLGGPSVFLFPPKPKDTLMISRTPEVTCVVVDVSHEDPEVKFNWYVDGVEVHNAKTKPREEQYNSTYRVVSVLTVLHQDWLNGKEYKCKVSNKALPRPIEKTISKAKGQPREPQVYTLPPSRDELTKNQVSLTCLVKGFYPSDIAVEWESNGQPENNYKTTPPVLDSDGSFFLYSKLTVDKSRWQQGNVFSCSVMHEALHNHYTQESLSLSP
light: B5 light
B8: GpH7-B3 variant G237Y/GpL16-k0 (antibody, human IgG1, kappa)
heavy: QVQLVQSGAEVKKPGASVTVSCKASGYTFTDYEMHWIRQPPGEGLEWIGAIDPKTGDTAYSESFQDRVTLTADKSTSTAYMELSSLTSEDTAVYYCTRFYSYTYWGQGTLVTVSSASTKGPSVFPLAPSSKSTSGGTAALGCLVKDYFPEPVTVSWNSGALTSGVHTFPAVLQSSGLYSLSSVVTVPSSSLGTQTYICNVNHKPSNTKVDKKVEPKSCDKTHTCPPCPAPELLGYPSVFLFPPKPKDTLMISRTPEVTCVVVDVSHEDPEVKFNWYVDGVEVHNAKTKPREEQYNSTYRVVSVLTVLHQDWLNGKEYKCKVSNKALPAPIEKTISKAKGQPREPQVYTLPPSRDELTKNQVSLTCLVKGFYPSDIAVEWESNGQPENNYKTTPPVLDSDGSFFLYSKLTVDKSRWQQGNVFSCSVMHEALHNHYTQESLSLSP
light: B5 light
B9: GpH7-B3 variant N325I/GpL16-k0 (antibody, human IgG1, kappa)
heavy: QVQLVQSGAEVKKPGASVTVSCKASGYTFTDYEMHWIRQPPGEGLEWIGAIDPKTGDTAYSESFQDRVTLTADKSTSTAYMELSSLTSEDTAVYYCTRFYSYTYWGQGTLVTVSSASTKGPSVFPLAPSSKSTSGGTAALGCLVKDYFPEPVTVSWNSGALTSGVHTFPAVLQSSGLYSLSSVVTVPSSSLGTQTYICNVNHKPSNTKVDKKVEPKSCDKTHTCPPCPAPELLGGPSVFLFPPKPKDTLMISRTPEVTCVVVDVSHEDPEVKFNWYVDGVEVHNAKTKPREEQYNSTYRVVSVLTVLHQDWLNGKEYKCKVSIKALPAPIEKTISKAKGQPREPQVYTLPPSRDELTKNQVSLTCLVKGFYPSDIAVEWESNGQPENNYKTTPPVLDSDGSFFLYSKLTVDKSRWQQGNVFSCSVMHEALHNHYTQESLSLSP
light: B5 light
B10: GpH7-B3 variant N325L/GpL16-k0 (antibody, human IgG1, kappa)
heavy: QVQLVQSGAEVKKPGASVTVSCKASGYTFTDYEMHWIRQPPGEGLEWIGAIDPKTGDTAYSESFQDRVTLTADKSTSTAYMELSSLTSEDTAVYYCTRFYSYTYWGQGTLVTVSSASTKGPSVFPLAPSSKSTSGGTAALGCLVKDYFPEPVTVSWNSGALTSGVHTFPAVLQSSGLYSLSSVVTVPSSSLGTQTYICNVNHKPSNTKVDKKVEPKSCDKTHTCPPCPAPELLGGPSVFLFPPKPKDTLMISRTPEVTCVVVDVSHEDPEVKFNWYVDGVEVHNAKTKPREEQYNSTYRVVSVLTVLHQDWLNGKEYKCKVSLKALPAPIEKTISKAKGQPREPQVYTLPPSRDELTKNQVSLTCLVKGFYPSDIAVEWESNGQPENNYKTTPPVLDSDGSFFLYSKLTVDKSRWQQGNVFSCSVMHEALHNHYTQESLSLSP
light: B5 light
B11: GpH7-B3 variant P238E/GpL16-k0 (antibody, human IgG1, kappa)
heavy: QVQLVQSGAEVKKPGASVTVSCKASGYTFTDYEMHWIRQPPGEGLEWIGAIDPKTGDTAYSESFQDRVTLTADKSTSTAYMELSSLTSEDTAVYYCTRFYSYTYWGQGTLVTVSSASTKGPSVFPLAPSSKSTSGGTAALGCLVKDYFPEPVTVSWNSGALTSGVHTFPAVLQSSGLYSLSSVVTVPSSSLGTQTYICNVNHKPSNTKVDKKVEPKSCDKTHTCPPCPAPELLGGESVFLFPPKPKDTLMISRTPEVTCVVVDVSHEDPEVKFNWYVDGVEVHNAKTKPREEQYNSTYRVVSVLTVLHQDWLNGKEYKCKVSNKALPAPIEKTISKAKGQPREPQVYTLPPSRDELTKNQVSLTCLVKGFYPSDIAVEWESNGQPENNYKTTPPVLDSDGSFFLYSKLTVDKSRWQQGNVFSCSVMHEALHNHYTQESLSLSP
light: B5 light
B12: GpH7-B3 variant P238M/GpL16-k0 (antibody, human IgG1, kappa)
heavy: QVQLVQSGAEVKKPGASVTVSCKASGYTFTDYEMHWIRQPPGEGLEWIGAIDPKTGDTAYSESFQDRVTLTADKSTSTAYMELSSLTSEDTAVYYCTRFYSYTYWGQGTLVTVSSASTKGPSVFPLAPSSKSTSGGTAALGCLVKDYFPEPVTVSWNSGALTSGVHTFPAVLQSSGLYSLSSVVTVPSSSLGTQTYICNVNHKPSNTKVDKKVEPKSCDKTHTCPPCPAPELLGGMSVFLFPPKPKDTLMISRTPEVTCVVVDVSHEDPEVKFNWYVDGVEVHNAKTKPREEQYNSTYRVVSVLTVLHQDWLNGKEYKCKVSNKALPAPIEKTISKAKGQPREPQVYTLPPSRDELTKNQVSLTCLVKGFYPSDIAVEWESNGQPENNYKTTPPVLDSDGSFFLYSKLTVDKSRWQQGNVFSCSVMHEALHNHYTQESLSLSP
light: B5 light
B13: GpH7-B3 variant P271E/GpL16-k0 (antibody, human IgG1, kappa)
heavy: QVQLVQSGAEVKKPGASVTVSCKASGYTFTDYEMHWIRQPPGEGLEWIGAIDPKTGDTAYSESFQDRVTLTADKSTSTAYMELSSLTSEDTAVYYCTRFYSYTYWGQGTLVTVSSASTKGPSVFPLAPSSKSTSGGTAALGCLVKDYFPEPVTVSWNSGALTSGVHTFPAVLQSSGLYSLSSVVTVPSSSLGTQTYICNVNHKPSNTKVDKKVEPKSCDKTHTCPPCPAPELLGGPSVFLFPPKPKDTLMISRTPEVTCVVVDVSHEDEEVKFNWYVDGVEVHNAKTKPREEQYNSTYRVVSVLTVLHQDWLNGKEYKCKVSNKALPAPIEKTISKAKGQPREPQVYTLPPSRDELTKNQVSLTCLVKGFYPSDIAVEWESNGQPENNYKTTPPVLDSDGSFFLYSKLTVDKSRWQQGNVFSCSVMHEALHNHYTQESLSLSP
light: B5 light

Legend:
[1] = target: T1, human FcγRIIb constitutively expressed …; experiment: cell-based or functional assay
[2] = target: T2, soluble mouse FcγRII, His-tagged; experiment: SPR, mouse FcgRII-His captured, antigen-antibody complex injected, pH7.4, 25C
[3] = target: T3, human FcγRIIaH extracellular domain, …; experiment: SPR 25C; FcgR bound per captured antibody, relative to parent B3
Method: (§1) These Fc variants are referred to as B3 variants. B3 variants were expressed and the binding of protein-A purified antibodies to each FcγR (FcγRIIa type H. FcγRIIa type R, FcγRIIb, and FcγRIIIaF) was comprehensively evaluated as follows. Analysis of interaction between each altered antibody and the Fcγ receptor prepared as mentioned above was carried out using BIACORE® T100 (GE Healthcare), BIACORE® T200 (GE Healthcare), BIACORE® A100, or BIACORE® 4000. HBS-EP+(GE Healthcare) was used as the running buffer, and the measurement temperature was set to 25° C. Chips produced by immobilizing Protein A (Thermo Scientific), Protein A/G (Thermo Scientific), or Protein L (ACTIGEN or BioVision) by the amine coupling method to a Series S sensor Chip CM5 or CM4 (GE Healthcare) were used. After capturing of antibodies of interest onto these sensor chips, an Fcγ receptor diluted with the running buffer was allowed to interact, the amount bound to an antibody was measured. However, since the amount of Fcγ receptor bound depends on the amount of the captured antibodies, the amount of Fcγ receptor bound was divided by the amount of each antibody captured to obtain corrected values, and these values were compared. Furthermore, antibodies captured onto the chips were washed by 10 mM glycine-HCl pH1.5, and the chips were regenerated and used repeatedly. […] The value obtained by multiplying this value by 100 was used as an indicator of the relative FcγR-binding activity of each variant.

[4] = target: T4, human FcγRIIaR extracellular domain, …; experiment: as above
Method: as §1

| Binder | celluar uptake [1] | biacore IC binding [2] | Binding to human FcgRs (parent B3 = 100) [3] | Binding to human FcgRs (parent B3 = 100) [4] |
| --- | --- | --- | --- | --- |
| B1 | 4.44 relative to SG1 (=1.00) | 2.19 relative to SG1 (=1.00) |  |  |
| B2 | 2.86 relative to SG1 (=1.00) | 1.47 relative to SG1 (=1.00) |  |  |
| B3 | 3.71 relative to SG1 (=1.00) | 2.01 relative to SG1 (=1.00) |  |  |
| B4 | 4.42 relative to SG1 (=1.00) | 1.64 relative to SG1 (=1.00) |  |  |
| B5 |  |  | 95 parent B3 = 100 | 48 parent B3 = 100 |
| B6 |  |  | 121 parent B3 = 100 | 127 parent B3 = 100 |
| B7 |  |  | 116 parent B3 = 100 | 123 parent B3 = 100 |
| B8 |  |  | 77 parent B3 = 100 |  |
| B9 |  |  | 76 parent B3 = 100 |  |
| B10 |  |  | 93 parent B3 = 100 | 13 parent B3 = 100 |
| B11 |  |  | 21 parent B3 = 100 | 2 parent B3 = 100 |
| B12 |  |  | 86 parent B3 = 100 |  |
| B13 |  |  | 90 parent B3 = 100 | 51 parent B3 = 100 |
